The subject of the assay is human saphenous veins. Put plainly: Ex vivo cultured human saphenous veins, intimal thickening. Conditions: 15 μM, 14 days culture in 10% FBS/M199. Here is the method: Saphenous veins were cut into 0.5 cm segments, and processed immediately (●) or cultured in 10% FBS/M199 containing 15 μM control III-11c peptide (▪) or pUR4 (▴) at 37° C. for 14 days. Veins were fixed, paraffin embedded, sectioned, and stained. Morphometric analysis was performed on six randomly chosen sections using Image-Pro Plus software. The intima/media ratio was determined by dividing intima area by media area. Paired student t-test was used to analyze the data. Data are expressed as mean±S.E.M. *p<0.05.
Human saphenous veins cultured in serum containing media develop intimal hyperplasia after 14 days in culture (Soyombo et al., “Intimal Proliferation in an Organ Culture of Human Saphenous Vein,” Am J Pathol. 137(6):1401-1410 (1990); Angelini et al., “Smooth Muscle Cell Proliferation in Response to Injury in an Organ Culture of Human Saphenous Vein,” Eur J Vasc Surg. 5(1):5-12 (1991); and Slomp et al., “Nature and Origin of the Neointima in Whole Vessel Wall Organ Culture of the Human Saphenous Vein,” Virchows Arch. 428(1):59-67 (1996), which are hereby incorporated by reference in their entirety). This system thus provides an ex vivo model system for studying mechanisms that lead to intimal hyperplasia that has distinct advantages over in vitro culture systems. […]

B1: pUR4: 49-mer peptide derived from the bacterial F1 adhesin, His tagged, SEQ ID NO:1; class I fibronectin polymerization inhibitor (peptide)
chain: MRGSHHHHHHGSKDQSPLAGESGETEYITEVYGNQQNPVDIDKKLPNETGFSGNMVETEDTKLN
modifications: His tag; Bacterial adhesin derived peptide pUR4
Take B1: the intima/media ratio entry is “decreases”.

(Values after US9364516B2, “Treatment of fibrosis-related disorders using fibronectin binding proteins and polypeptides” (priority 2010, dated 2016).)
